The values below come from publication PMC8220723.

In data set [1] the target is FuTraP-hASCT2-d17, human ASCT2 with a deletion of 17 amino acids of region C, fused to AcGFP (human) (UniProt Q15758).
Data set [2] has the same target. The source holds these as a separate data set.
Data set [3] deals with wild-type human ASCT2 fused to AcGFP (FuTraP-hASCT2-wt) (human) (UniProt Q15758).
The nature of data set [4]: infection, dsRed-positive cells by flow cytometry. The following applies: glycan lost; control: wild type (FuTraP-hASCT2-wt). (Flow cytometry measures light scatter and fluorescence of single cells or particles in a stream.)
The nature of data set [5]: confocal microscopy, AcGFP with membrane dye. The following applies: glycan lost; control: wild type (FuTraP-hASCT2-wt).
Data set [6] is described as follows: flow cytometry, AcGFP MFI normalised to iRFP713 MFI. The following applies: glycan lost; control: wild type (FuTraP-hASCT2-wt).

Take “Syncytin-1 envelope glycoprotein of the chimeric virus MCAS(Sync1-MSC16)dsRed (cytoplasmic tail shortened to 16 amino acids) (from UniProt Q9UQF0 21-538) (natural protein)”: the infection of DF-1/LgBiT cells expressing the FuTraP variant by MCAS(Sync1-MSC16)dsRed, dsRed-positive cells by flow cytometry (reduced sensitivity compared to the wild type) in data set [1] worked out at 1.7%. For the same molecule, the spinoculation of cells expressing the FuTraP variant with MCAS(Sync1-MSC16)dsRed, infected (dsRed-positive) cells by flow cytometry came to 21% in data set [2] and 56% in data set [3].

B1: ASCT2: N212Q (protein)
parent chain: MVADPPRDSKGLAAAEPTANGGLALASIEDQGAAAGGYCGSRDQVRRCLRANLLVLLTVVAVVAGVALGLGVSGAGGALALGPERLSAFVFPGELLLRLLRMIILPLVVCSLIGGAASLDPGALGRLGAWALLFFLVTTLLASALGVGLALALQPGAASAAINASVGAAGSAENAPSKEVLDSFLDLARNIFPSNLVSAAFRSYSTTYEERNITGTRVKVPVGQEVEGMNILGLVVFAIVFGVALRKLGPEGELLIRFFNSFNEATMVLVSWIMWYAPVGIMFLVAGKIVEMEDVGLLFARLGKYILCCLLGHAIHGLLVLPLIYFLFTRKNPYRFLWGIVTPLATAFGTSSSSATLPLMMKCVEENNGVAKHISRFILPIGATVNMDGAALFQCVAAVFIAQLSQQSLDFVKIITILVTATASSVGAAGIPAGGVLTLAIILEAVNLPVDHISLILAVDWLVDRSCTVLNVEGDALGAGLLQNYVDRTESRSTEPELIQVKSELPLDPLPVPTEEGNPLLKHYRGPAGDATVASEKESVM
With B1, in data set [4], the “other: receptor-mediated sensitivity to viral infection” value was “no change”. Besides, the localisation_or_trafficking result in data set [5] is “no change”. Moreover, the “expression_or_secretion, percent_of_wt” value in data set [6] is reported as “decreases”.
